Results taken from paper PMC11143371 (Nature Communications, 2024).

Molecular target: T1, RV3 preF OnlyEcto (Human respirovirus 3 (HPIV3), strain …, stabilised)
T1 construct: also called RV3 preF lead candidate; source: Expi293F, transfected, purified (Capto Q Impress, SEC)
Experiment: BLI; kinetic Octet; […] (0-900 s), […] (900-1800 s)
Settings: both partners purified

B1: single-domain antibody (sdAb) 4C06 (VHH)
VHH: EVQLVESGGGLVQPGGSLRLSCSASGSLSTIKALGWYRRAPGRERELVASITSAGETNYADSAKGRFTVSTDNAKNTVDLRMNSLKPEDTAVYYCYAESFVLNIYWGQGTQVTVSS
notes: also called VHH 4C06
binding result: binds
